Columns and labels:
[1] = target: T1, sf-GFP-mATGL288 (mouse ATGL residues 1-288 fused to superfolder GFP) (mouse, UniProt Q8BJ56 1-288); assay: cell-based or functional assay
T1 sequence (looked up): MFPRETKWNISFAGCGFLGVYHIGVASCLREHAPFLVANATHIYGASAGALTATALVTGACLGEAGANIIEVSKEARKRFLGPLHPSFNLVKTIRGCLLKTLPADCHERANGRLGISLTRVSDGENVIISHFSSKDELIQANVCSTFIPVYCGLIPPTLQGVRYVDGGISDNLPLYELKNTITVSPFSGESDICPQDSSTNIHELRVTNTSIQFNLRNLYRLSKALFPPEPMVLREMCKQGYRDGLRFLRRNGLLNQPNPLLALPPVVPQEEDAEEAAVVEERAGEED

[2] = target: T1, sf-GFP-mATGL288 (mouse ATGL residues …); assay: MST; Monolith NT.115; smt3-tagged hHILPDA 1.1 μM to 487 μM titrated against 0.01 μM sf-GFP-mATGL_288; 20 mM phosphate, 300 mM NaCl, 1 mM EDTA, 1 mM DTT pH 7.0, 1% BSA; room temperature; triplicate; conditions: both partners purified
[3] = target: T2, sf-GFP-mATGL288 (mouse ATGL residues 1-288 fused to superfolder GFP) (mouse) (UniProt Q8BJ56)
T2 sequence: T1 sequence (looked up)

B1: 6XHis-smt3-TEV-hHILPDA (human hypoxia-inducible lipid droplet-associated protein, full length) (natural protein, UniProt Q9Y5L2 1-63, looked up)
chain: MKHVLNLYLLGVVLTLLSIFVRVMESLEGLLESPSPGTSWTTRSQLANTEPTKGLPDHPSRSM
notes: human HILPDA (Hig-2), 63 amino acids, construct hHILPDA_1-63 in a modified pSUMO vector with 6XHis tag and TEV site; The fusion protein (22 kDa) was used without removal of smt3; a TEV site lies between smt3 and HILPDA; also called smt3-HILPDA fusion protein; source: E. coli BL21-CodonPlus (DE3)-RIL, purified (HisTrap FF, Superdex 200); not shown: smt3, N-terminal, kept
[1]
  IC50 of inhibition of TGH activity of mATGL288 lysate (without sf-GFP) with CGI-58; HILPDA 44 nM to 44 μM: 1.9 µM
[2]
  Kd: 247 µM

## MKHVLNLYLLGVVLTLLSIFVRVMESLE (domain or fragment) [hHILPDA_1-28 (6XHis-smt3-TEV fusion)]
[3]
  IC50 of inhibition of TGH activity of mATGL288 lysate (without sf-GFP) with CGI-58; HILPDA 1-28 44 nM to 44 μM: 5 µM

## MKHVLNLYLLGVVLTLLSIFVRVM (domain or fragment) [hHILPDA_1-24 (6XHis-smt3-TEV fusion)]
[3]
  IC50 of inhibition of TGH activity of mATGL288 lysate (without sf-GFP) with CGI-58; HILPDA 1-24 44 nM to 44 μM: 5.4 µM

— PMC5832925, “Hypoxia-inducible lipid droplet-associated protein inhibits adipose triglyceride lipase” (Journal of Lipid Research, 2018)
